The results in this text go back to patent US7452701B2, “Methods for the preparation of β-amino acids” (Wisconsin Alumni Research Foundation, priority 1998, dated 2008).

The target of data set [1] is T1, Escherichia coli 2,3-aminomutase (P39280 protein) (Escherichia coli, UniProt P39280).
T1 sequence (P39280 whole entry, looked up): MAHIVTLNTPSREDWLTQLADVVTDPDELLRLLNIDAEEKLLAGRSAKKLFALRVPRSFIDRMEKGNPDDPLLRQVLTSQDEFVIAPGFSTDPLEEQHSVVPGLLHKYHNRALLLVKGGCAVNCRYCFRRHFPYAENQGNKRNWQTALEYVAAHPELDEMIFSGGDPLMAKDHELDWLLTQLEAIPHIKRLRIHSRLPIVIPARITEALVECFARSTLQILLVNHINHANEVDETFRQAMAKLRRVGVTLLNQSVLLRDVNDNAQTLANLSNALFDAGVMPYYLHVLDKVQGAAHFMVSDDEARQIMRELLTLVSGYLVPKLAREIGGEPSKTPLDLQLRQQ
The data set is described as follows: Lysine 2,3-aminomutase activity of E. coli P39280 protein, HPLC of PITC derivatives. The data set is classed as biochemical. Particulars: L-lysine 44 mM, 37° C. for 60 min. The method, then: Lysine 2,3-aminomutase activity was measured with the Escherichia coli 2,3-aminomutase (P39280 protein) as described for alanine 2,3-aminomutase (see Example 5) with the following exceptions: P39280 protein, (25.4 μM-subunit); S-(5′-adenosyl)-L-methionine 90 μM; sodium hydrosulfite 2.3 mM; L-lysine 44 mM. The reaction was conducted at 37° C. for 60 min. The HPLC gradient established was 0-10% Buffer B in 35 min, 10-30% Buffer B in 35 min, 30-55% Buffer B in 35 min, and 55-100% Buffer B in 20 min. The PITC derivative of L-lysine eluted at a retention time of 101 min whereas the PITC derivative of β-lysine eluted at 95.6 min.

The target of data set [2] is T2, Clostridial lysine 2,3-aminomutase (Clostridium subterminale, UniProt Q9XBQ8).
T2 construct: made in house; host or cells: E. coli BL21(DE3) with pET-23a(+) (lysine 2,3-aminomutase gene) and pAlter-Ex2 (dnaY gene)
The data set is described as follows: Lysine 2,3-aminomutase activity, conversion of C-14 L-α-lysine to L-β-lysine (paper electrophoresis). Conditions: purified recombinant produced enzyme. The data set is classed as biochemical, Clostridium subterminale SB4. The protocol:
Aerobically grown E. coli cells (1 ml) containing the pET 23a(+) plasmid vector with the Clostridial lysine 2,3-aminomutase gene and the p-Alter-EX2 plasmid vector with the E. coli dnaY gene were used to seed a glass fermentor (Virtis Laboratory Fermentor #233395, Virtis Corporation, Gardiner, N.Y.) containing 15 liters of 2×YT media (240 gm Difco Bactotryptone, 150 gm Bacto yeast extract, […], Difco Laboratories, Detroit, Mich.) and supplemented with 50 μM Fe(II)SO4, 50 μM ZnSO4, 50 μM Na2S, 4 mM sodium thioglycolate, 100 μg/ml ampicillin, and 10 μg/ml tetracycline. The sealed flask was made anaerobic by gentle bubbling of nitrogen gas for 3 hours prior to cell inoculation. Anaerobicity was monitored by the presence of a small quantity of methylene blue (10 mg) which remains colorless in the absence of oxygen. After approximately 14 hours anaerobic culture at 37° C. when the cell density had reached 0.05 OD (optical density) at 600 nm, 0.2% (w/v) D-(+) glucose was added. […]
The supernatant was used to measure L-β-lysine formation according to the procedure of Ballinger et al. Biochemistry 31:10782 (1992). […] The mixture was spotted onto chromatography paper (Whatman #3001917, Whatman, LTD, Maidstone, England), the amino acids separated by electrophoresis and radioactivity measured according to the published procedure. […]

B1: P39280-protein: E. coli polypeptide, SEQ ID NO: 4, distant homologue of lysine 2,3-aminomutase from Cl. subterminale (protein, listed as Escherichia coli)
chain: MAHIVTLNTPSREDWLTQLADVVTDPDELLRLLNIDAEEKLLAGRSAKKLFALRVPRSFIDRMEKGNPDDPLLRQVLTSQDEFVIAPGFSTDPLEEQHSVVPGLLHKYHNRALLLVKGGCAVNCRYCFRRHFPYAENQGNKRNWQTALEYVAAHPELDEMIFSGGDPLMAKDHELDWLLTQLEAIPHIKRLRIHSRLPIVIPARITEALVECFARSTLQILLVNHINHANEVDETFRQAMAKLRRVGVTLLNQSVLLRDVNDNAQTLANLSNALFDAGVMPYYLHVLDKVQGAAHFMVSDDEARQIMRELLTLVSGYLVPKLAREIGGEPSKTPLDLQLRQQ
B1: in data set [1], the “2,3-aminomutase activity toward L-lysine” value is “does display 2,3-aminomutase activity”.

B2: purified recombinant produced lysine 2,3-aminomutase: Clostridial lysine 2,3-aminomutase expressed in E. coli and purified (protein, UniProt Q9XBQ8 1-416, looked up)
L-lysine 2,3-aminomutase: MINRRYELFKDVSDADWNDWRWQVRNRIETVEELKKYIPLTKEEEEGVAQCVKSLRMAITPYYLSLIDPNDPNDPVRKQAIPTALELNKAAADLEDPLHEDTDSPVPGLTHRYPDRVLLLITDMCSMYCRHCTRRRFAGQSDDSMPMERIDKAIDYIRNTPQVRDVLLSGGDALLVSDETLEYIIAKLREIPHVEIVRIGSRTPVVLPQRITPELVNMLKKYHPVWLNTHFNHPNEITEESTRACQLLADAGVPLGNQSVLLRGVNDCVHVMKELVNKLVKIRVRPYYIYQCDLSLGLEHFRTPVSKGIEIIEGLRGHTSGYCVPTFVVDAPGGGGKTPVMPNYVISQSHDKVILRNFEGVITTYSEPINYTPGCNCDVCTGKKKVHKVGVAGLLNGEGMALEPVGLERNKRHVQE
For B2, the enzyme activity in data set [2] is 34.5±1.6 μmoles lysine min^1 mg^−1 protein.
